The values below are quoted from earlier work in publication PMC12612446.

This data set concerns the target HER2 (Homo sapiens) (UniProt P04626).

On to trastuzumab, for which the dissociation constant Kd was 0.58 nM.

As usually defined, the Kd is the equilibrium constant for the complex coming apart.
